Measured values published in PMC12236821.

Molecular target: AtBAM1 ectodomain (residues 20-629) (Arabidopsis thaliana) (UniProt O49545)
Assay: ITC

Sequence of UniProt O49545 (O49545 20-629): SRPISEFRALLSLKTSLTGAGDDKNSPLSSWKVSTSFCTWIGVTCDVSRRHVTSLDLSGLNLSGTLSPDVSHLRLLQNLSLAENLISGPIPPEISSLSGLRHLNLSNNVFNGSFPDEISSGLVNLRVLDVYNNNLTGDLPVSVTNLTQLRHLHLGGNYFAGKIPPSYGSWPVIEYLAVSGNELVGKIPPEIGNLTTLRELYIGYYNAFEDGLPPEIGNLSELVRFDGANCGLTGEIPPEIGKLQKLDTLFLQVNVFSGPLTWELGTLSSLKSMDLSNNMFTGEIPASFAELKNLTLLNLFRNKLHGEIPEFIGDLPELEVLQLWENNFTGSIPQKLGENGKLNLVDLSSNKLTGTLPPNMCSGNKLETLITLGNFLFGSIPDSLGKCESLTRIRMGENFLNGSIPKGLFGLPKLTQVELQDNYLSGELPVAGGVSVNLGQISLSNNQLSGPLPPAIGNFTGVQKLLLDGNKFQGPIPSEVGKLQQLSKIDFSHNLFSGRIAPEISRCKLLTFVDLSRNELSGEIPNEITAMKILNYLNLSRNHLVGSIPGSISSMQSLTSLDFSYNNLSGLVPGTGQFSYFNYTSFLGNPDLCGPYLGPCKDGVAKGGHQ

## AtCLV3p (Arabidopsis CLAVATA3 peptide)
  fold lower affinity than AtCLE13p: 1000 fold
